Here are results for two substances from doi:10.1101/2023.10.09.561572.

Where only a bound is given, the exact number is not on record here.

The data set deals with T1, SERF2 (Homo sapiens) (UniProt P84101).
T1 sequence: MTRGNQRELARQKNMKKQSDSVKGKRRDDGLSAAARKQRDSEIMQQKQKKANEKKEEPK
The data set is described as follows: fluorescence polarization. As to conditions: FP: 20 mM NaPi pH 7.4, 100 mM KCl, 25 C (20-100 nM FAM-RNA or 200 nM AF488-SERF2); NMR: same buffer, 4 C. Background: Fluorescence polarisation rises when a labelled molecule tumbles more slowly, as on binding a larger partner.

As a reminder, the Kd is the free concentration of one partner at which half of the binding sites on the other are occupied at equilibrium, for simple one-to-one binding. polyG RNA showed a Kd of less than 1000 nM.
Regarding TERRA60 rG4, the dissociation constant Kd was less than 1000 nM.
